Results taken from PMC5389555.

How the values were obtained:
[1] = target: HA-GSK3β (wild-type) (UniProt P49841); assay: co-IP; HEK293T transfected with HA-GSK3β-WT; anti-HA beads washed in TBS, then RNase A treatment (200 μg/ml) for 15 min at 4°C; blots for p72, DGCR8, Drosha and HA
[2] = target: HA-GSK3β-K85R (UniProt P49841); assay: co-IP; HEK293T transfected with HA-GSK3β-WT, -S9A, -K85R or -K85A,K86A; lysates pre-cleared, EZView anti-HA agarose beads, 4°C overnight; blots for p72, DGCR8 and HA

percent reduction of co-precipitation after RNase A treatment [1]: > 50%
percent reduction of co-precipitation against GSK3β-WT [2]: 60%
Substance: p72 (DDX17) (endogenous) (natural protein)
